# Publication PMC12212125, “Constitutively active Arabidopsis cryptochrome two alleles identified using yeast selection and deep mutational scanning” (The Journal of Biological Chemistry, 2025)
# B1: Arabidopsis thaliana cryptochrome 2 (CRY2, UniProt Q96524), residues 1-535 fused after the Gal4 DNA-binding domain (Gal4BD-CRY2(535)); mutagenized window 321-412, Q96524 (parent)
# chain: MKMDKKTIVWFRRDLRIEDNPALAAAAHEGSVFPVFIWCPEEEGQFYPGRASRWWMKQSLAHLSQSLKALGSDLTLIKTHNTISAILDCIRVTGATKVVFNHLYDPVSLVRDHTVKEKLVERGISVQSYNGDLLYEPWEIYCEKGKPFTSFNSYWKKCLDMSIESVMLPPPWRLMPITAAAEAIWACSIEELGLENEAEKPSNALLTRAWSPGWSNADKLLNEFIEKQLIDYAKNSKKVVGNSTSLLSPYLHFGEISVRHVFQCARMKQIIWARDKNSEGEESADLFLRGIGLREYSRYICFNFPFTHEQSLLSHLRFFPWDADVDKFKAWRQGRTGYPLVDAGMRELWATGWMHNRIRVIVSSFAVKFLLLPWKWGMKYFWDTLLDADLECDILGWQYISGSIPDGHELDRLDNPALQGAKYDPEGEYIRQWLPELARLPTEWIHHPWDAPLTVLKASGVELGTNYAKPIVDIDTARELLAKAISRTREAQIMIGAAPDEIVADSFEALGANTIKEPGLCPSVSSNDQQVPSAV
# Variants of: B1
# Assay: yeast two-hybrid growth selection (MaV203; Gal4BD-CRY2(1-535) library x Gal4AD-CIB1; URA3 reporter on SC -Trp/-Leu/-Ura) in the dark, deep sequencing before and after selection, Enrich2 scoring; three independent screens (one at 48 h, two …)
# Settings: with CIB1 (CRYPTOCHROME-INTERACTING BASIC-HELIX-LOOP-HELIX 1), dark (no blue light), screens 1, 3 and 4, Svar > 0 = enriched under dark selection for CRY2-CIB1 two-hybrid growth (URA3 reporter), < 0 = depleted, relative to wild type (whose scores are 0). 'The Enrich2 software calculates, parent: 0, not an affinity, scale: Enrich2 score, numbering: uniprot, sequence starts at 1
row,Variant,enrichment
1,W376C,-0.498
2,W376L,0.0656
3,W376S,-1.68
4,W376R,-1.3
5,W376G,-0.7
6,W349C,0.242
7,W349G,0.303
8,W349R,0.599
9,W349S,0.756
10,V362G,-1.16
11,V362A,-0.304
12,V362D,-1.36
13,V362I,0.151
14,P339Q,-1.15
15,P339L,-1.02
16,P339T,-0.66
17,R332I,-0.681
18,R332K,-1.23
19,R332G,-0.0201
20,R332S,0.5
21,I358K,-1.34
22,I358L,0.903
23,I358M,0.739
24,I358V,0.345
25,I358R,-0.0561
26,I358T,-0.414

row,Variant,enrichment
1,W331G,-1.69
2,W331C,-0.871
3,W331L,1
4,W331R,-1.72
5,T351A,-1.04
6,T351N,-0.315
7,T351P,-0.191
8,T351S,-0.0139
9,K368Q,2.29
10,K368R,0.246
11,K368E,2.88
12,K368M,2.28
13,K368S,1.76
14,K368N,2.25
15,K368T,2.52
16,K368V,1.84
17,K368D,3.06
18,V360A,0.0306
19,V360E,0.367
20,V360G,-1.05
21,V360L,0.412
22,D326Y,-0.976
23,D326N,-0.256
24,D326A,-0.893
25,D326E,-1.28
26,D326V,-0.872

row,Variant,enrichment
1,D326G,0.327
2,R359G,-0.386
3,R359I,-0.665
4,R359S,-0.603
5,L340S,-1.47
6,L340V,-0.561
7,L340W,-1.48
8,L340F,-1.05
9,L340M,0.444
10,Q333H,0.227
11,Q333L,-0.0861
12,Q333P,-1.44
13,Q333K,-0.851
14,Q333R,1.48
15,D387E,-1.15
16,D387H,-0.974
17,D387A,-0.921
18,D387G,-1.18
19,D387N,-0.788
20,M345I,-0.745
21,M345K,-1.43
22,M345R,-1.12
23,M345L,-0.395
24,M345T,-1.83
25,M345V,-1.49
26,I361V,-0.287

row,Variant,enrichment
1,I361M,-0.375
2,I361F,-0.00476
3,I361S,-0.712
4,I361T,-0.646
5,I361L,0.823
6,I361N,-1.11
7,F369V,1.03
8,F369C,0.578
9,F369I,-0.158
10,F369L,0.468
11,F369T,-2.07
12,F369S,-0.00513
13,Y380H,-0.297
14,Y380F,1.2
15,Y380N,-1.37
16,Y380C,-0.0376
17,Y380S,-0.827
18,Y380D,-0.763
19,W374R,1.5
20,W374C,1.8
21,W374L,1.65
22,W374G,0.75
23,L385H,2.39
24,L385F,2.61
25,L385I,2.28
26,L385P,-1.22

row,Variant,enrichment
1,L385R,-0.336
2,L385V,2.7
3,D342N,-0.898
4,D342E,-1.69
5,D342A,-0.75
6,D342G,-1.84
7,D342V,-1.71
8,D342Y,-1.02
9,K329T,0.41
10,K329M,0.675
11,K329E,-0.264
12,K329R,0.366
13,K329N,0.546
14,Y338N,-1.68
15,Y338F,-0.84
16,Y338D,-1.31
17,Y338H,-0.584
18,Y338C,-1.57
19,Y338S,-0.758
20,R346K,0.452
21,R346G,-1.54
22,R346I,-1.1
23,R346S,-1.36
24,K375Q,0.228
25,K375S,0.796
26,K375E,2.2

row,Variant,enrichment
1,K375I,0.307
2,K375V,1.44
3,K375R,-0.0254
4,K375T,-0.845
5,G344E,-0.724
6,G344V,-1.21
7,G344R,-0.722
8,W382G,0.784
9,W382C,-0.025
10,W382R,-1.18
11,W382L,-0.17
12,W353S,-0.64
13,W353G,-0.0561
14,W353C,-0.321
15,W353R,-1.15
16,W353L,-0.339
17,K379Q,-0.304
18,K379T,0.481
19,K379A,1.5
20,K379N,-0.188
21,K379E,-0.743
22,K379L,0.965
23,K379R,0.0968
24,K379M,-1.02
25,L371V,1.25
26,L371R,1.98

row,Variant,enrichment
1,L371S,1.98
2,L371H,2.16
3,L371F,3.11
4,L371P,-1.4
5,L371I,-0.7
6,L386W,-0.68
7,L386F,-0.324
8,L386S,-0.716
9,L386M,0.0161
10,L386V,0.483
11,A343T,-0.823
12,A343P,-2.1
13,A343D,-0.747
14,A343G,-0.899
15,D324G,-0.17
16,D324A,0.0228
17,D324E,0.371
18,D324V,2.44
19,D324N,-0.413
20,D324Y,0.863
21,G334S,-0.925
22,G334V,-0.578
23,G334A,-1.45
24,G334C,0.0705
25,F381S,-1.2
26,F381V,-0.0604

row,Variant,enrichment
1,F381Y,0.399
2,F381L,1.1
3,F381I,-0.4
4,F381C,0.0158
5,F381T,1.8
6,M354R,-1.57
7,M354T,0.533
8,M354V,0.0609
9,M354I,0.689
10,M354K,-1.63
11,M354L,0.399
12,N356H,0.0591
13,N356S,0.0584
14,N356Y,0.824
15,N356T,0.0153
16,N356I,-0.473
17,N356D,2.44
18,N356K,-0.299
19,A350T,-0.108
20,A350G,0.232
21,A350P,-1.4
22,A350D,-0.775
23,A350S,0.303
24,A350V,-0.0426
25,T384P,-1.14
26,T384I,-0.949

row,Variant,enrichment
1,T384S,0.274
2,T384K,-0.721
3,T384A,0.177
4,T336P,-0.907
5,T336N,-0.274
6,T336S,0.494
7,T336A,-1.84
8,T336I,-1.58
9,R357K,0.845
10,R357S,2.1
11,R357G,2.16
12,R357I,-0.511
13,A330G,-2.23
14,A330D,-0.577
15,A330S,-0.0962
16,A330T,-0.56
17,A330V,-1.26
18,A330P,-1.93
19,A366V,2.13
20,A366D,-0.566
21,A366P,-1.03
22,A366T,1
23,L348I,-0.199
24,L348H,-1.52
25,L348R,-1.14
26,L348P,-1.54

row,Variant,enrichment
1,L348F,2.98
2,W321L,-1.18
3,W321R,0.946
4,W321C,-0.0126
5,W321G,-0.157
6,K327T,-0.117
7,K327R,0.118
8,K327N,-0.0863
9,K327M,-0.448
10,K327Q,0.397
11,K327E,-1.63
12,P373S,-0.52
13,P373Q,-0.644
14,P373L,-0.618
15,P373T,0.0155
16,L370H,-0.964
17,L370R,0.499
18,L370I,-0.966
19,L370P,-1.4
20,M378R,2.81
21,M378T,2.32
22,M378K,2.66
23,M378V,0.308
24,M378A,0.99
25,M378I,-0.703
26,M378L,-0.703

row,Variant,enrichment
1,G337R,-0.665
2,G337V,-1.13
3,G337C,-1.19
4,G337S,-0.736
5,D322V,0.286
6,D322A,-0.241
7,D322Y,-0.959
8,D322E,0.472
9,D322N,0.239
10,D322G,0.357
11,V367L,1.55
12,V367A,-0.78
13,V367G,-0.377
14,V367M,1.21
15,V367E,-0.759
16,V325A,-0.239
17,V325D,-1.89
18,V325F,-0.532
19,V325G,0.408
20,V325I,-0.344
21,D383Y,-0.379
22,D383E,-0.349
23,D383G,-0.813
24,D383V,-0.206
25,D383N,-0.384
26,D383A,-0.952

row,Variant,enrichment
1,G352R,-0.844
2,G352A,-1.47
3,G352E,-0.327
4,V341A,-1.68
5,V341M,-0.679
6,V341E,-1.64
7,V341G,-1.65
8,V341L,-1.04
9,G377E,-0.85
10,G377R,-1.08
11,G377V,-0.508
12,H355Q,-0.322
13,H355D,-1.37
14,H355R,0.547
15,H355L,-0.0587
16,H355Y,-0.714
17,H355P,0.249
18,L372H,-1.45
19,L372F,0.987
20,L372I,-0.44
21,L372P,-1.5
22,L372R,0.499
23,A323T,-0.65
24,A323D,0.677
25,A323S,0.117
26,A323V,-0.61

row,Variant,enrichment
1,R335K,0.204
2,R335T,1.74
3,R335S,-0.537
4,R335G,-1.19
5,F328P,0.453
6,F328C,-1.53
7,F328Y,-0.296
8,F328I,-1.51
9,F328L,-0.872
10,F328S,-1.95
11,F328V,-2.43
12,E347V,-1.41
13,E347K,-1.6
14,E347A,0.457
15,E347D,-0.854
16,E347G,-1.39

# Variants of: B1
# Assay: yeast two-hybrid, quantitative GalUAS-lacZ (beta-galactosidase) reporter assay
# Settings: with itself; dark; strain AH109; parent: 25; read off a plot
row,Variant,response [Miller units]
1,chain 1 D393A,160
2,chain 1 D393S,170
3,chain 1 W374A,170
4,chain 1 M378R,210

# Same assay, conditions: with itself; light; strain AH109; parent: 220; read off a plot
row,Variant,response [Miller units]
1,chain 1 D393A,180
2,chain 1 D393S,160
3,chain 1 W374A,180
4,chain 1 M378R,240
